Laboratory results as given in publication PMC8754201, “Structures of Two Human Astrovirus Capsid/Neutralizing Antibody Complexes Reveal Distinct Epitopes and Inhibition of Virus Attachment to Cells” (Journal of Virology, 2021).

How the values were obtained:
Details in all cases: both partners purified
[1] = biological target: T1, HAstV8 capsid spike (Spike 8) fused to a 10x histidine tag (Human astrovirus 8 (HAstV-8), Q9IFX1, UniProt Q9IFX1); assay: BLI; His-tagged Spike 8 (0.5 ug/ml) loaded on Anti-Penta-His (HIS1K) biosensors; scFv as analyte in six 1:2 serial dilutions (from 80 nM scFv 3E8 or 20 nM scFv 2D9); PBS pH 7.4, 2% BSA, 0.09% Tween 20; 22 C; global 1:1 fit; mean of triplicate assays
T1 construct: HAstV serotype 8 capsid spike protein, amino acids 429 to 647 of the capsid protein (UniProtKB entry Q9IFX1); A thrombin cleavage site stands between the spike and the C-terminal 10-histidine tag (pET52b); Captured on Anti-Penta-His sensors by the tag; also called His-tagged Spike 8; HAstV serotype 8 capsid spike protein; not shown: His10, C-terminal, kept
T1 sequence (Q9IFX1 429-647, one chain of several): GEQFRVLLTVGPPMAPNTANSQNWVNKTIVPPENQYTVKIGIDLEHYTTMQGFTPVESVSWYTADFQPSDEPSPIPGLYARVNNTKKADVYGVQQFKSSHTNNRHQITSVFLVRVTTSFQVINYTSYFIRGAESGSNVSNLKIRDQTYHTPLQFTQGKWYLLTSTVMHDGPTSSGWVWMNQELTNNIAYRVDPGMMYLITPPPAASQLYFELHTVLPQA

[2] = biological target: T2, HAstV8 capsid spike (Spike 8), purification tag removed by thrombin (human astrovirus serotype 8 (HAstV8), UniProt Q9IFX1); assay: SEC; 3 molar excess scFv 3E8 with Spike 8 overnight at 4 C, tags removed with thrombin; Superdex 200 in TBS pH 7.2; coeluted at apparent ~105 kDa against gel filtration standards; data not shown
T2 construct: HAstV serotype 8 capsid spike protein, amino acids 429 to 647 of the capsid protein (UniProtKB entry Q9IFX1); Same construct as m1 after thrombin digestion; residues of the thrombin site may remain at the C-terminus; source: tag removed with thrombin during complex formation; not shown: His10, C-terminal, cleaved
T2 sequence (Q9IFX1 429-647): as the sequence (Q9IFX1 429-647, one chain of several) above

[3] = biological target: T2, HAstV8 capsid spike (Spike 8), …; assay: SEC; 3.5 molar excess scFv 2D9 with Spike 8 overnight at 4 C, tags removed with thrombin; Superdex 200 in TBS pH 8.0; coeluted at apparent ~105 kDa against gel filtration standards; data not shown

Binder | Kd [1] | further results
scFv 3E8 (single-chain variable fragment of mouse monoclonal antibody 3E8) (scFv, V domains shown, 3E8 kappa chain variable region; GGS(GGGGS)3 linker; 3E8 heavy chain variable region; A thrombin cleavage site stands between the scFv and the C-terminal Twin Strep-tag; source: CHO-S cells (electroporated), secreted, purified (StrepTrap HP)) VH: DVQLQESGPGLVKPSQSLSLTCSVTGYSITSGYYWNWIRQFPGNKLEWMGYISYDGSNNYNPSLKNRISITRDTSKNQFFLKLNSVTTEDTATYYCATFYDGYDYWGQGTTLTVSS VL: DIVMTQSHKFMSTSVGDRVSITCKASQDVSTAVAWYQQKPGQSPKLLIYWASTRHTGVPDRFTGSGSGTDYTLTISSVQAEDLALYYCQQHYSTPFTFGSGTKLEIK | 40 nM | –
scFv 2D9 (single-chain variable fragment of mouse monoclonal antibody 2D9) (scFv, V domains shown, 2D9 kappa chain variable region; GGS(GGGGS)3 linker; 2D9 heavy chain variable region; A thrombin cleavage site stands between the scFv and the C-terminal Twin Strep-tag; source: D. melanogaster Schneider 2 (S2) cells, stably transfected, secreted, purified (StrepTrap HP)) VH: QVQLKQSGPGLVQPSQSLSITCTVSGFSLTSYGVHWVRQSPGKGLEWLGVIWSGGSTDYNAAFISRLSISKDNSKSQVFFKMNSLQANDTAIYYCARNSLLDAMDYWGQGTSVTVSS VL: SIVMTQTPKFLLVSAGDRVTITCKASQSVSNAVAWYQQKPGQSPKLLIYYASNRYTGVPDRFTGSGYGTDFTFTISTVQAEDLAVYFCQQDYSSPLTFGAGTKLELK | 0.00245 nM | –
scFv 3E8, purification tag removed by thrombin (scFv, V domains shown, 3E8 kappa chain variable region, as in m3; GGS(GGGGS)3 linker; 3E8 heavy chain variable region, as in m3; Same construct as m3 after thrombin digestion; source: CHO-S cells (electroporated), secreted, purified (StrepTrap HP); tag removed with thrombin during complex formation; not shown: Twin Strep-tag, C-terminal, cleaved) VH: DVQLQESGPGLVKPSQSLSLTCSVTGYSITSGYYWNWIRQFPGNKLEWMGYISYDGSNNYNPSLKNRISITRDTSKNQFFLKLNSVTTEDTATYYCATFYDGYDYWGQGTTLTVSS VL: DIVMTQSHKFMSTSVGDRVSITCKASQDVSTAVAWYQQKPGQSPKLLIYWASTRHTGVPDRFTGSGSGTDYTLTISSVQAEDLALYYCQQHYSTPFTFGSGTKLEIK | – | stoichiometry N [2]: 1 scFv per Spike 8 protomer (2:2 complex)
scFv 2D9, purification tag removed by thrombin (scFv, V domains shown, 2D9 kappa chain variable region, as in m5; GGS(GGGGS)3 linker; 2D9 heavy chain variable region, as in m5; Same construct as m5 after thrombin digestion; source: D. melanogaster Schneider 2 (S2) cells, stably transfected, secreted, purified (StrepTrap HP); tag removed with thrombin during complex formation; not shown: Twin Strep-tag, C-terminal, cleaved) VH: QVQLKQSGPGLVQPSQSLSITCTVSGFSLTSYGVHWVRQSPGKGLEWLGVIWSGGSTDYNAAFISRLSISKDNSKSQVFFKMNSLQANDTAIYYCARNSLLDAMDYWGQGTSVTVSS VL: SIVMTQTPKFLLVSAGDRVTITCKASQSVSNAVAWYQQKPGQSPKLLIYYASNRYTGVPDRFTGSGYGTDFTFTISTVQAEDLAVYFCQQDYSSPLTFGAGTKLELK | – | stoichiometry N [3]: 1 scFv per Spike 8 protomer (2:2 complex)
